The target in test [1] is T1, JE VLP (Japanese encephalitis virus, UniProt P27395).
T1 construct: virus-like particle; also called Japanese Encephalitis Virus VLP
Nature of the test: Luminex bead assay (antigen on MagPlex beads, MFI).

Test [2] has as its target T2, DENV-4 VLP (Dengue virus serotype 4, strain …, UniProt P09866 114-774). Put plainly: Luminex, VLP-coupled beads.
The target in test [3] is T2, DENV-4 VLP.
For test [4], the target named is T1, JE VLP. Put plainly: Luminex bead assay (antigen on MagPlex beads, MFI). The source holds these as a separate data set.
For test [5], the target named is T2, DENV-4 VLP. Nature of the test: Luminex bead assay (antigen on MagPlex beads, MFI).
Test [6] deals with T1, JE VLP. Put plainly: Luminex bead assay (antigen on MagPlex beads, MFI). The source holds these as a separate data set.
For test [7], the target named is T2, DENV-4 VLP. Put plainly: Luminex bead assay (antigen on MagPlex beads, MFI). The source holds these as a separate data set.
Test [8] addresses T1, JE VLP. Nature of the test: Luminex bead assay (antigen on MagPlex beads, MFI). The source holds these as a separate data set.

Read-outs that look alike come from different tables or passages of the source.

T1 sequence (P27395 128-794 limits assumed): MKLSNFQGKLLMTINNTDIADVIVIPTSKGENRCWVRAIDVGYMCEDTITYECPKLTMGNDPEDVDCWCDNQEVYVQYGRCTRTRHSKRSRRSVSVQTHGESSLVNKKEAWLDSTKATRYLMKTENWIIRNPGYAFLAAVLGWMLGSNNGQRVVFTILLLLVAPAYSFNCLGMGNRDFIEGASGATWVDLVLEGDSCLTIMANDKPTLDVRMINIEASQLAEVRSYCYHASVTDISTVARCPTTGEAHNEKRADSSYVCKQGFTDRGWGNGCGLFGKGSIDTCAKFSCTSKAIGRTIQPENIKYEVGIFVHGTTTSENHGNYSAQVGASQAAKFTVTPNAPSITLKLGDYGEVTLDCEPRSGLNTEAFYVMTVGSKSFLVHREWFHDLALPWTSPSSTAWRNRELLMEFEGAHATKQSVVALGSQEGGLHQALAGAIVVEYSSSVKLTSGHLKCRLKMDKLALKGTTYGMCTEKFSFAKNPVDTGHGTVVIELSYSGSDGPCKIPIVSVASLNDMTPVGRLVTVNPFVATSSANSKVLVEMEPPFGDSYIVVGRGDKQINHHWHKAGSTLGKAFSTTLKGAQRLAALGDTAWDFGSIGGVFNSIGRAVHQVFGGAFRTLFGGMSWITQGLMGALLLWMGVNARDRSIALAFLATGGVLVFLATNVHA

B1: DENV4-9G8 (antibody, V domains shown)
VH: QSLEESGGGLVKPGASLTLTCTASGFSFSYRYWMSWVRQAPGKRPEWIACIDTGNGDTYYASRAKGRFTIMKTSSTTVTLQMTSLTVADTATYFCARSDVTLTGYGYGNLWGPGTLVTVSS
VL: DSVMTQTPASVSEPVGGTVTINCQASHNIYNSLAWYQQKPGQPPKLLIYRASTLESGVPSRVKGSGYGTEYTLTISDLECADAATYYCQQYYGGDDDGFGFGGGTEVVVK
notes: also called Clone 9G8
Usually EC50 stands for the concentration that produces a half-maximal response. Higher therefore signals a less potent agent. The term koff denotes a measure of how fast the partners let go of each other. Read a high koff as fast dissociation. With B1, in test [1], the binding result was “no binding (tested: 10000 ng/mL)”. Besides, in test [2], the EC50 was 0.0713 µg/mL. Besides, in test [3], the “Response (nm)” value stood at 0.137 nm and the dissociation rate constant (koff) is less than 2e-05 s⁻¹.

B2: DENV4-7F2 (antibody, V domains shown)
VH: QSVEESGGRLVTPGTPLTLTCTVSGIDLSYYAMGWVRQAPGEGLECIGFIDTGDSAYYASWAKGRFTISKTSSTTVDLKITSPTPEDTATYFCGRSLSSYYDWDAFDPWGPGTLVTVSS
VL: AYDMTQTPASVEVAVGGTVTINCQASQTIGNLLAWYQQKPGQRPKLLIYRASTLASGVPSRFKGSGSGTQFTLTISGVECADAATYYCQQGASANDIDNSFGGGTAVVVK
notes: also called Clone 7F2
For B2, in test [2], the EC50 was determined as 0.0407 µg/mL. For the same molecule, in test [3], the “Response (nm)” value came out at 2.32 nm and the off-rate (koff) was 3.67e-05 s⁻¹. Moreover, in test [4], the binding result is “no binding (tested: 10000 ng/mL)”.

B3: DENV4-10A11 (antibody, V domains shown)
VH: QSVEESGGRLVTPGTPLTLTCTVSGINLSFYAMGWVRQAPGKGLECVGFIDTDNSAYYASWAKGRFTISKTSTTVDLKITSPTTEDTATYFCARSLSSFYDWDAFDPWGPGTLVTVSS
VL: AYDMTQTPASVEVAVGGTVTIKCLASQSISNLLAWYQQKPGQRPKLLIYRASTLASGVPSRFKGSGSGTQFTLTISGVECADAATYYCQQGASNSDIDNAFGGGTEVVVK
notes: also called Clone 10A11; 10A1l
For B3, the binding result in test [1] was “no binding (tested: 10000 ng/mL)”. In test [2], this molecule had a concentration giving a half-maximal response (EC50) of 0.0236 µg/mL. Besides, in test [3], the “Response (nm)” value turned out to be 2.17 nm and the koff turned out to be 4.17e-05 s⁻¹.

B4: DENV2-5F4 (antibody, V domains shown)
VH: QSVEESGGRLVKPDETLTLTCTVSGIDLSNTVISWVRQAPGKGLEYIGMITPSGSAYSATWAKGRVTISRTSTTVDLKIASPTTEDTATYFCARIAWSTGRNDIWGPGTLVTVSS
VL: AAVLTQTPPSVSAAVGGTVTIKCQSSQSVYNNNALSWYQQKPGQPPKLLIYQASKLSSGVSSRFSGSGSGTHFTLTISGVQCDDAATYYCLGIYDDDVDNTFGGGTEVVVG
B4: the binding result in test [5] and in test [6] was “no binding (tested: 10000 ng/mL)” throughout.

B5: DENV2-8D8 (antibody, V domains shown)
VH: QSLEESGGRLVKPDETLTLTCTVSGIDLSSTIITWVRQAPGKGLEYIGIIGSSGSIISANWAKGRFTISRTSTTVDLKMTSLTTEDTATYFCARIAWSTGRNDIWGPGTLVTVSS
VL: AAVLTQTPPSVSAAVGGTVTISCQSSQSVYNNNALSWYQQKPGQPPKLLIYLASNLASGVPSRFSGSGSGTQFTLTISGVQCDDAATYHCLGVDDDDVDNTFGGGTEVVVK
B5: the binding result in test [5] and in test [6] was “no binding (tested: 10000 ng/mL)” throughout.

B6: DENV4-5B11 (antibody, V domains shown)
VH: QSVEESGGRLVTPGTPLTLTCTVSGFSLSDSAMSWVRQAPGKGLEWIGYIYAGSGTTYYASWAKGRFTISKTSTTVDLKITSPTTEDTATYFCARATAYVGYGYGDDTFDPWGPGTLVTVSS
VL: AYDMTQTPASVEVAVGGTVTIKCQASQSISSYLSWYQQKPGQRPKLLIYRASTLASGVSSRFKGSGSGTEFTLTISGVQCDDAATYYCQQGYSNSDVDNVFGGGTEVVVK
notes: also called Clone 5B11
B6 registered an EC50 in test [2] of 0.0192 µg/mL. In test [3], the “Response (nm)” value was found to be 2.39 nm and the koff was 2.36e-05 s⁻¹. In test [4], the binding result is “no binding (tested: 10000 ng/mL)”.

B7: DENV4-7G4 (antibody, V domains shown)
VH: QSVEESGGRLVTPGTPLTLTCTVSGFSLSSCAMTWVRQAPGKGLEWIGYIYVDSDTTYYASWAKGRFTISTTSTTVDLRITSPTTEDTATYFCARTTAYVGGGYGDDTFDPWGPGTLVTVSS
VL: DVVMTQTPASVEAAVGGTVTINCQASQNINSYLSWYQQKPGQRPKLLIYRAFTLASGVSSRFKGSGSGTQFTLTISGVECADAATYYCQQGYSFSGVDNVFGGGTEVVVK
notes: also called Clone 7G4
In turn, B7 showed an EC50 in test [2] of 0.0214 µg/mL. Besides, in test [3], the “Response (nm)” value was found to be 2.16 nm and the koff is less than 2e-05 s⁻¹. Also, in test [4], the binding result is listed as “no binding (tested: 10000 ng/mL)”.

B8: DENV4-7D5 (antibody, V domains shown)
VH: QSVEESGGRLVTPGTPLTLTCTVSGIDLSSWEMGWVRQAPGKGLEWIGIIFPSGTIYYANWAKGRFAISKASTTVDLKITSPTTEDTATYFCGRHGGSLYLNIWGPGTLVTVSL
VL: AQVLTQTPSPVSAAVGGTVTINCQASQSVYVNRNLAWYQQKPGQPPKVLIYEASKLASGVPSRFKGSGSGTQFTLTISGVQCDDAATYYCQGEFGCSSADCIAFGGGTEVVVK
notes: also called Clone 7D5
In turn, B8 gave a half-maximal effective concentration (EC50) in test [2] of 0.0232 µg/mL. Also, in test [3], the “Response (nm)” value came to 2.45 nm and the koff came to 3.56e-05 s⁻¹. Also, the binding result in test [4] is on record as “no binding (tested: 10000 ng/mL)”.

B9: DENV4-8C7 (antibody, V domains shown)
VH: QSVEESGGRLVTPGTPLTLTCTVSGIDLSSYEMGWVRQAPGKGLEWIGIIFPSGTIYYANWAKGRFTISKTSTTVDLKITSPTTEDTATYFCGRHGGSLYLNIWGPGTLVTVSL
VL: AQVLTQTPSPVSAAVGGTVTINCQASQSVYVNRNLAWYQQKPGQPPKVLIYEASKLASGVPSRFKGSGSGTQFTLTISGVQCDDAATYYCQGEFGCSSADCIAFGGGTEVVVK
notes: also called Clone 8C7
Regarding B9, the binding result in test [1] is recorded as “no binding (tested: 10000 ng/mL)”. In test [2], this molecule came in with an EC50 of 0.0176 µg/mL. Besides, in test [3], the “Response (nm)” value worked out at 2.38 nm and the off-rate (koff) came to 3.32e-05 s⁻¹.

B10: DENV2-3H11 (antibody, V domains shown)
VH: QSVEESGGRLVTPGTPLTLTCTVSGFSLINYDMSWIRQAPGKGLEWIGMVSGGGHTNYASWANGRFTISKTSSTTMDLKITSPTTEDTASYFCGRWDIWGPGTLVTVSL
VL: AVVVTQTASPVSAAVGGTVTISCQSSQSVYDDNWLAWYQQKPGQPPKQLIYRASRLASGVPSRFSGTGSGTQFTLTISGVQCDDAATYYCLGGYVDDGDTTFGGGTEVVVK
notes: also called DENV2-3H111
As to B10, the binding result in test [7] and in test [8] was “no binding (tested: 10000 ng/mL)” in each case.

The record behind these values is patent US20260167703A1 (Takeda / Millennium, published 2026).
